Measurements from IntAct's records for PubMed 19559761.

Target: ef1a2_human EEF1A2 (UniProt Q05639)
Chain of UniProt Q05639 (Q05639 whole entry): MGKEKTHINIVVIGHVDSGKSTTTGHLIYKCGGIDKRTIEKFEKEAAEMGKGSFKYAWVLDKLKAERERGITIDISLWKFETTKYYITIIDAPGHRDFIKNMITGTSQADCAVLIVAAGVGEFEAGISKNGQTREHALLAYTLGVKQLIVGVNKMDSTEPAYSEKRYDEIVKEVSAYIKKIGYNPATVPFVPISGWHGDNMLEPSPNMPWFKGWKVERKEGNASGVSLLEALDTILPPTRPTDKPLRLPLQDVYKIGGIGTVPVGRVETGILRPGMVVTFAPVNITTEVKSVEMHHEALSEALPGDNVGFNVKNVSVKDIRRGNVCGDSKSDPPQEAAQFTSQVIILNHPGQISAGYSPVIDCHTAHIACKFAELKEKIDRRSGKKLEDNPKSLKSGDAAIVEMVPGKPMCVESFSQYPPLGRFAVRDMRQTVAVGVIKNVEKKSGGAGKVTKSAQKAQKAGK

## Leucine-rich repeat serine/threonine-protein kinase 2 (Homo sapiens), Q5S007 G2019S
  effect of a mutation on the interaction: increasing interaction
